Test results taken from patent US20150087577A1 (POLYPHOR, published 2015).
Bridges are numbered along the chain shown (N, C = ends). [ ]: non-standard residue; d: D form. Phe(4-F) = N[C@@H](Cc1ccc(F)cc1)C(=O)O; 2Nal = N[C@@H](Cc1ccc2ccccc2c1)C(=O)O; Cit = NC(=O)NCCC[C@H](N)C(=O)O

B1: Example 71 (peptide)
peptide: cyclo(YRICRG[dP]RR[2Nal]CYQK[dP]P)
modifications: disulfide 4-11
SMILES: CC[C@H](C)[C@@H]1NC(=O)[C@H](CCCNC(=N)N)NC(=O)[C@H](Cc2ccc(O)cc2)NC(=O)[C@@H]2CCCN2C(=O)[C@H]2CCCN2C(=O)[C@H](CCCCN)NC(=O)[C@H](CCC(N)=O)NC(=O)[C@H](Cc2ccc(O)cc2)NC(=O)[C@@H]2CSSC[C@H](NC1=O)C(=O)N[C@@H](CCCNC(=N)N)C(=O)NCC(=O)N1CCC[C@@H]1C(=O)N[C@@H](CCCNC(=N)N)C(=O)N[C@@H](CCCNC(=N)N)C(=O)N[C@@H](Cc1ccc3ccccc3c1)C(=O)N2
B2: Example 73 (peptide)
peptide: cyclo(YRWCRG[dP]RR[2Nal]CYQK[dP]P)
modifications: disulfide 4-11
SMILES: N=C(N)NCCC[C@@H]1NC(=O)[C@@H]2CSSC[C@H](NC(=O)[C@H](Cc3ccc4ccccc4c3)NC(=O)[C@H](CCCNC(=N)N)NC(=O)[C@H](CCCNC(=N)N)NC(=O)[C@H]3CCCN3C(=O)CNC1=O)C(=O)N[C@@H](Cc1ccc(O)cc1)C(=O)N[C@@H](CCC(N)=O)C(=O)N[C@@H](CCCCN)C(=O)N1CCC[C@@H]1C(=O)N1CCC[C@H]1C(=O)N[C@@H](Cc1ccc(O)cc1)C(=O)N[C@@H](CCCNC(=N)N)C(=O)N[C@@H](Cc1c[nH]c3ccccc13)C(=O)N2
B3: Example 75 (peptide)
peptide: cyclo(YRECRG[dP]RR[2Nal]CYQK[dP]P)
modifications: disulfide 4-11
SMILES: N=C(N)NCCC[C@@H]1NC(=O)[C@@H]2CSSC[C@H](NC(=O)[C@H](Cc3ccc4ccccc4c3)NC(=O)[C@H](CCCNC(=N)N)NC(=O)[C@H](CCCNC(=N)N)NC(=O)[C@H]3CCCN3C(=O)CNC1=O)C(=O)N[C@@H](Cc1ccc(O)cc1)C(=O)N[C@@H](CCC(N)=O)C(=O)N[C@@H](CCCCN)C(=O)N1CCC[C@@H]1C(=O)N1CCC[C@H]1C(=O)N[C@@H](Cc1ccc(O)cc1)C(=O)N[C@@H](CCCNC(=N)N)C(=O)N[C@@H](CCC(=O)O)C(=O)N2
B4: Example 72 (peptide)
peptide: cyclo(YRYCRG[dP]RR[2Nal]CYQK[dP]P)
modifications: disulfide 4-11
SMILES: N=C(N)NCCC[C@@H]1NC(=O)[C@@H]2CSSC[C@H](NC(=O)[C@H](Cc3ccc4ccccc4c3)NC(=O)[C@H](CCCNC(=N)N)NC(=O)[C@H](CCCNC(=N)N)NC(=O)[C@H]3CCCN3C(=O)CNC1=O)C(=O)N[C@@H](Cc1ccc(O)cc1)C(=O)N[C@@H](CCC(N)=O)C(=O)N[C@@H](CCCCN)C(=O)N1CCC[C@@H]1C(=O)N1CCC[C@H]1C(=O)N[C@@H](Cc1ccc(O)cc1)C(=O)N[C@@H](CCCNC(=N)N)C(=O)N[C@@H](Cc1ccc(O)cc1)C(=O)N2
B5: Example 74 (peptide)
peptide: cyclo(YRPCRG[dP]RR[2Nal]CYQK[dP]P)
modifications: disulfide 4-11
SMILES: N=C(N)NCCC[C@@H]1NC(=O)[C@@H]2CSSC[C@H](NC(=O)[C@H](Cc3ccc4ccccc4c3)NC(=O)[C@H](CCCNC(=N)N)NC(=O)[C@H](CCCNC(=N)N)NC(=O)[C@H]3CCCN3C(=O)CNC1=O)C(=O)N[C@@H](Cc1ccc(O)cc1)C(=O)N[C@@H](CCC(N)=O)C(=O)N[C@@H](CCCCN)C(=O)N1CCC[C@@H]1C(=O)N1CCC[C@H]1C(=O)N[C@@H](Cc1ccc(O)cc1)C(=O)N[C@@H](CCCNC(=N)N)C(=O)N1CCC[C@H]1C(=O)N2
B6: Example 70 (peptide)
peptide: cyclo(YRHCRG[dP]RR[2Nal]CYQK[dP]P)
modifications: disulfide 4-11
SMILES: N=C(N)NCCC[C@@H]1NC(=O)[C@@H]2CSSC[C@H](NC(=O)[C@H](Cc3ccc4ccccc4c3)NC(=O)[C@H](CCCNC(=N)N)NC(=O)[C@H](CCCNC(=N)N)NC(=O)[C@H]3CCCN3C(=O)CNC1=O)C(=O)N[C@@H](Cc1ccc(O)cc1)C(=O)N[C@@H](CCC(N)=O)C(=O)N[C@@H](CCCCN)C(=O)N1CCC[C@@H]1C(=O)N1CCC[C@H]1C(=O)N[C@@H](Cc1ccc(O)cc1)C(=O)N[C@@H](CCCNC(=N)N)C(=O)N[C@@H](Cc1c[nH]cn1)C(=O)N2
B7: Example 69 (peptide)
peptide: cyclo(YRRCRG[dP]RR[2Nal]CYQK[dP]P)
modifications: disulfide 4-11
SMILES: N=C(N)NCCC[C@@H]1NC(=O)[C@@H]2CSSC[C@H](NC(=O)[C@H](Cc3ccc4ccccc4c3)NC(=O)[C@H](CCCNC(=N)N)NC(=O)[C@H](CCCNC(=N)N)NC(=O)[C@H]3CCCN3C(=O)CNC1=O)C(=O)N[C@@H](Cc1ccc(O)cc1)C(=O)N[C@@H](CCC(N)=O)C(=O)N[C@@H](CCCCN)C(=O)N1CCC[C@@H]1C(=O)N1CCC[C@H]1C(=O)N[C@@H](Cc1ccc(O)cc1)C(=O)N[C@@H](CCCNC(=N)N)C(=O)N[C@@H](CCCNC(=N)N)C(=O)N2
B8: Example 66 (peptide)
peptide: cyclo(WR[Cit]CRG[dP]RR[2Nal]CYQK[dP]P)
modifications: disulfide 4-11
SMILES: N=C(N)NCCC[C@@H]1NC(=O)[C@@H]2CSSC[C@H](NC(=O)[C@H](Cc3ccc4ccccc4c3)NC(=O)[C@H](CCCNC(=N)N)NC(=O)[C@H](CCCNC(=N)N)NC(=O)[C@H]3CCCN3C(=O)CNC1=O)C(=O)N[C@@H](Cc1ccc(O)cc1)C(=O)N[C@@H](CCC(N)=O)C(=O)N[C@@H](CCCCN)C(=O)N1CCC[C@@H]1C(=O)N1CCC[C@H]1C(=O)N[C@@H](Cc1c[nH]c3ccccc13)C(=O)N[C@@H](CCCNC(=N)N)C(=O)N[C@@H](CCCNC(N)=O)C(=O)N2
B9: Example 67 (peptide)
peptide: cyclo(TR[Cit]CRG[dP]RR[2Nal]CYQK[dP]P)
modifications: disulfide 4-11
SMILES: C[C@@H](O)[C@@H]1NC(=O)[C@@H]2CCCN2C(=O)[C@H]2CCCN2C(=O)[C@H](CCCCN)NC(=O)[C@H](CCC(N)=O)NC(=O)[C@H](Cc2ccc(O)cc2)NC(=O)[C@@H]2CSSC[C@H](NC(=O)[C@H](CCCNC(N)=O)NC(=O)[C@H](CCCNC(=N)N)NC1=O)C(=O)N[C@@H](CCCNC(=N)N)C(=O)NCC(=O)N1CCC[C@@H]1C(=O)N[C@@H](CCCNC(=N)N)C(=O)N[C@@H](CCCNC(=N)N)C(=O)N[C@@H](Cc1ccc3ccccc3c1)C(=O)N2
B10: Example 4 (peptide)
peptide: cyclo(YR[Cit]VRRR[2Nal]FY[Cit]K[dP]P)
SMILES: CC(C)[C@@H]1NC(=O)[C@H](CCCNC(N)=O)NC(=O)[C@H](CCCNC(=N)N)NC(=O)[C@H](Cc2ccc(O)cc2)NC(=O)[C@@H]2CCCN2C(=O)[C@H]2CCCN2C(=O)[C@H](CCCCN)NC(=O)[C@H](CCCNC(N)=O)NC(=O)[C@H](Cc2ccc(O)cc2)NC(=O)[C@H](Cc2ccccc2)NC(=O)[C@H](Cc2ccc3ccccc3c2)NC(=O)[C@H](CCCNC(=N)N)NC(=O)[C@H](CCCNC(=N)N)NC(=O)[C@H](CCCNC(=N)N)NC1=O
B11: Example 3 (peptide)
peptide: cyclo(YR[Cit]FRRR[2Nal]FY[Cit]K[dP]P)
SMILES: N=C(N)NCCC[C@@H]1NC(=O)[C@H](CCCNC(=N)N)NC(=O)[C@H](Cc2ccccc2)NC(=O)[C@H](CCCNC(N)=O)NC(=O)[C@H](CCCNC(=N)N)NC(=O)[C@H](Cc2ccc(O)cc2)NC(=O)[C@@H]2CCCN2C(=O)[C@H]2CCCN2C(=O)[C@H](CCCCN)NC(=O)[C@H](CCCNC(N)=O)NC(=O)[C@H](Cc2ccc(O)cc2)NC(=O)[C@H](Cc2ccccc2)NC(=O)[C@H](Cc2ccc3ccccc3c2)NC(=O)[C@H](CCCNC(=N)N)NC1=O
B12: Example 68 (peptide)
peptide: cyclo(ER[Cit]CRG[dP]RR[2Nal]CYQK[dP]P)
modifications: disulfide 4-11
SMILES: N=C(N)NCCC[C@@H]1NC(=O)[C@@H]2CSSC[C@H](NC(=O)[C@H](Cc3ccc4ccccc4c3)NC(=O)[C@H](CCCNC(=N)N)NC(=O)[C@H](CCCNC(=N)N)NC(=O)[C@H]3CCCN3C(=O)CNC1=O)C(=O)N[C@@H](Cc1ccc(O)cc1)C(=O)N[C@@H](CCC(N)=O)C(=O)N[C@@H](CCCCN)C(=O)N1CCC[C@@H]1C(=O)N1CCC[C@H]1C(=O)N[C@@H](CCC(=O)O)C(=O)N[C@@H](CCCNC(=N)N)C(=O)N[C@@H](CCCNC(N)=O)C(=O)N2
B13: Example 65 (peptide)
peptide: cyclo(IR[Cit]CRG[dP]RR[2Nal]CYQK[dP]P)
modifications: disulfide 4-11
SMILES: CC[C@H](C)[C@@H]1NC(=O)[C@@H]2CCCN2C(=O)[C@H]2CCCN2C(=O)[C@H](CCCCN)NC(=O)[C@H](CCC(N)=O)NC(=O)[C@H](Cc2ccc(O)cc2)NC(=O)[C@@H]2CSSC[C@H](NC(=O)[C@H](CCCNC(N)=O)NC(=O)[C@H](CCCNC(=N)N)NC1=O)C(=O)N[C@@H](CCCNC(=N)N)C(=O)NCC(=O)N1CCC[C@@H]1C(=O)N[C@@H](CCCNC(=N)N)C(=O)N[C@@H](CCCNC(=N)N)C(=O)N[C@@H](Cc1ccc3ccccc3c1)C(=O)N2
B14: Example 76 (peptide)
peptide: cyclo(YR[Cit]CRG[dP][Phe(4-F)]R[2Nal]CYQK[dP]P)
modifications: disulfide 4-11
SMILES: N=C(N)NCCC[C@@H]1NC(=O)[C@@H]2CSSC[C@H](NC(=O)[C@H](Cc3ccc4ccccc4c3)NC(=O)[C@H](CCCNC(=N)N)NC(=O)[C@H](Cc3ccc(F)cc3)NC(=O)[C@H]3CCCN3C(=O)CNC1=O)C(=O)N[C@@H](Cc1ccc(O)cc1)C(=O)N[C@@H](CCC(N)=O)C(=O)N[C@@H](CCCCN)C(=O)N1CCC[C@@H]1C(=O)N1CCC[C@H]1C(=O)N[C@@H](Cc1ccc(O)cc1)C(=O)N[C@@H](CCCNC(=N)N)C(=O)N[C@@H](CCCNC(N)=O)C(=O)N2

What follows are binders tested against human CXCR4 (human, UniProt P61073 1-352) (assay: cell-based or functional assay).
human CXCR4, sequence (P61073 whole entry): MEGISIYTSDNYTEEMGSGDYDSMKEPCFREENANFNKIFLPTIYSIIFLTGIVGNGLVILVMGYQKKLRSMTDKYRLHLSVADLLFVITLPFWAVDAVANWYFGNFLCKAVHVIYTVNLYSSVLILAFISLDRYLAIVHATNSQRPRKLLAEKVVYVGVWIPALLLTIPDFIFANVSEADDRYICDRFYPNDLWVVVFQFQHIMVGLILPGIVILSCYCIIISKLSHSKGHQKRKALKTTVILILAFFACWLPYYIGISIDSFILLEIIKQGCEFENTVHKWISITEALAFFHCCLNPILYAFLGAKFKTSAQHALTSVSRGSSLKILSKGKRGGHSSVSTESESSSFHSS

First: B1
Second: B2
The “IC50 (nM) Ca2+ assay (method 2)” value of the first is 3.3-fold lower: 2.7 nM for the first, 8.8 nM for the second.

B3 and B4 are within 1.5-fold of each other in “IC50 (nM) Ca2+ assay (method 2)” value: 3.5 nM for the first, 3.9 nM for the second.

B5 and B6 are the same in “IC50 (nM) Ca2+ assay (method 2)” value: 19.5 nM for the first, 19.5 nM for the second.

Going from B7 to B8, the “IC50 (nM) Ca2+ assay (method 2)” value rises from 1.8 nM to 3.8 nM (2.1-fold).

First: B9
Second: B12
The “IC50 (nM) Ca2+ assay (method 2)” value of the first is 2.2-fold higher: 2.4 nM for the first, 1.1 nM for the second.

B13 and B14 are within 1.5-fold of each other in “IC50 (nM) Ca2+ assay (method 2)” value: 3.9 nM for the first, 5.6 nM for the second.

Going from B10 to B11, the “IC50 (nM) Ca2+ assay (method 1)” value falls from 2540 nM to 1000 nM (2.5-fold).
